Assay results taken from patent publication US20130302348A1 (MIT, published 2013).

Columns and labels:
[1] = molecular target: biotinylated H1 (A/Solomon Islands/03/06) HA polypeptide (influenza virus A/Solomon Islands/03/06)
BSA = molecular target: T1, BSA (Bos taurus, UniProt P02769); test: ELISA, KD table (Example 2)
T1 construct: also called 1% BSA

[2] = molecular target: HA of H1N1 influenza strain PR8 (A/Puerto Rico/8/34) (influenza virus A/Puerto Rico/8/34 …, UniProt P03452 18-565); test: cell-based or functional assay
[3] = molecular target: HA polypeptide of subtype H1 (Example 1 ELISA) (influenza virus, strain ); test: ELISA on HA-coated plate, KD from a fit of fractional saturation (Example 2)
[4] = molecular target: HA polypeptide of subtype H3 (Example 1 ELISA) (influenza virus, strain ); test: as above

T1 sequence (P02769 25-607 limits assumed): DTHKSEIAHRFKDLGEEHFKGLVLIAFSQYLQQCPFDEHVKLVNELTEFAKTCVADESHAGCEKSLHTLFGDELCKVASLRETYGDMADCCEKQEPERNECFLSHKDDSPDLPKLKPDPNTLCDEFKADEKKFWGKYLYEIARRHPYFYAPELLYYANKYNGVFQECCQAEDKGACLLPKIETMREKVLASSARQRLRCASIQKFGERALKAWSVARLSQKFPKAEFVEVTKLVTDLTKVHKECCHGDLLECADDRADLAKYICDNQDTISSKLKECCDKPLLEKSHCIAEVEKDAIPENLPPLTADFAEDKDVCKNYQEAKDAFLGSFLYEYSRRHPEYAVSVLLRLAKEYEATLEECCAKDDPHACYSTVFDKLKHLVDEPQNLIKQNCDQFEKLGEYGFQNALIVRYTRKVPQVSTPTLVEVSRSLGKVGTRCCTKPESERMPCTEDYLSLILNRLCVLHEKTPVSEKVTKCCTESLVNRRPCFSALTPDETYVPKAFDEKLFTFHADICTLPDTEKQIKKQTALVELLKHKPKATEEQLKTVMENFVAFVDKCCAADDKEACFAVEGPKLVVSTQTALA

B1: exemplary antibody (VH-1 combined with VL-1; Table 4) (antibody, V domains shown)
VH: EVQLLESGGGLVKPGQSLKLSCAASGFTFTSYGMHWVRQPPGKGLEWVAVISYDGSYKYYADSVQGRFTISRDNSKNTLYLQMNSLRAEDTAVYYCAKDSELRSLLYFEWLSQGYFNPWGAGTTLTVSS
VL: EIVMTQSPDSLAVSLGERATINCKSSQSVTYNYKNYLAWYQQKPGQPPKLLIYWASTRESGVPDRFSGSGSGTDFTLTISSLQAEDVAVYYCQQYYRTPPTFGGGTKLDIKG
notes: also called exemplary influenza antibody
[1]
  kon: 297000 M⁻¹ s⁻¹
BSA
  binding result: no binding
[2]
  IC50, microneutralization assay followed by qPCR of viral yield in MDCK cells: 0.5 µg/mL
[3]
  Kd: 0.074 nM
[4]
  Kd: 37.2 nM
